Laboratory results from publication PMC5612953, “Stable MOB1 interaction with Hippo/MST is not essential for development and tissue growth control” (Nature Communications, 2017).
Residue numbers refer to the chain shown, from its start. Numbers in names are those of the source.

T1: phospho-MOB1(K104E/K105E), full length, recombinant (human, UniProt Q9H8S9 1-216, K104E | K105E, phosphorylated in vitro by MST2 (residues 2-308); the paper names Thr12 and Thr35 as the MST1/2 phosphorylation sites of MOB1)
T1 sequence: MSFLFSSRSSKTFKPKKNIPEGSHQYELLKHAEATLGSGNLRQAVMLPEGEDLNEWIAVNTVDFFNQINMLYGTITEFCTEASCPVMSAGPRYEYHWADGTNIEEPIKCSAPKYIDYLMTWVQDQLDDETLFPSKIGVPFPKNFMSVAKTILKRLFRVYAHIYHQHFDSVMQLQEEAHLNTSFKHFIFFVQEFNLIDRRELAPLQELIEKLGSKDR

T2: unphosphorylated full-length MOB1A(K104E/K105E), recombinant (human, UniProt Q9H8S9 1-216, K104E | K105E)
T2 sequence: T1 sequence

T3: unphosphorylated full-length MOB1A(K104E/K105E), recombinant (human, UniProt Q9H8S9 1-216, K104E | K105E)
T3 construct: human MOB1A, full length; also called Unphosphorylated MOB1(K104E/K105E); MOB1(K104E/K104E); source: E. coli, purified as MOB1A (33-216) (Ni-NTA)
T3 sequence (looked up): T1 sequence

T4: phospho-MOB1(K104E/K105E), full length, recombinant (human, UniProt Q9H8S9 1-216, K104E | K105E, phosphorylated in vitro by MST2 (residues 2-308); the paper names Thr12 and Thr35 as the MST1/2 phosphorylation sites of MOB1)
T4 construct: human MOB1A, full length; source: E. coli, purified (Ni-NTA), then phosphorylated in vitro by MST2 (2-308)
T4 sequence (looked up): T1 sequence

T5: non-phosphorylated full-length MOB1A wild-type (human, UniProt Q9H8S9 1-216)
T5 construct: human MOB1A, full length; pET28a vector; also called unphosphorylated full-length MOB1; non-phosphorylated MOB1; source: E. coli, purified as MOB1A (33-216) (Ni-NTA)
T5 sequence (looked up): T1 sequence with E104K, E105K

T6: human NDR2 (residues 25-88), N-terminal regulatory domain (NTR) (human, UniProt Q9Y2H1 25-88)
T6 chain: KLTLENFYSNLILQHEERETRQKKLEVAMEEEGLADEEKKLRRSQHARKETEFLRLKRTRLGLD

T7: human LATS1 (residues 640-703), NTR (human, UniProt O95835 640-703)
T7 chain: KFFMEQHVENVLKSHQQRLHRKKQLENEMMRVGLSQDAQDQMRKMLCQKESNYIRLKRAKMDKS

T8: LATS1 (640-703, V647Y) (human, UniProt O95835 640-703, V647Y)
T8 sequence: T7 chain with V8Y

T9: human NDR1 (residues 24-87), NTR (human, UniProt Q15208 24-87)
T9 chain: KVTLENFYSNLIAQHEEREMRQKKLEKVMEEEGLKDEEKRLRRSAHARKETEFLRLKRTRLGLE

T10: LATS2 (603-666, V610Y) (human, UniProt Q9NRM7 603-666, V610Y)
T10 sequence: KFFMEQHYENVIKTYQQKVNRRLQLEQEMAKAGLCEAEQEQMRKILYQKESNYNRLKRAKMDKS

T11: human LATS2 (residues 603-666), NTR (human, UniProt Q9NRM7 603-666)
T11 chain: T10 sequence with Y8V

T12: human NDR2 (residues 25-88), N-terminal regulatory domain (NTR) (human, UniProt Q9Y2H1 25-88)
T12 construct: human NDR2, residues 25-88 (NTR); also called NDR2 (25-88); NTR of NDR2; source: E. coli BL21(DE3), purified (Ni-NTA)
T12 sequence (looked up): T6 chain

B1: NDR2 (25-88, Y32V) (domain or fragment)
chain: T6 chain with Y8V
B2: LATS1 (640-703, V647Y) (domain or fragment, human, UniProt O95835 640-703, looked up)
chain: T7 chain with V8Y
notes: human LATS1, residues 640-703 (NTR); also called LATS1(V647Y); source: E. coli BL21(DE3), purified (Ni-NTA)
B3: human LATS2 (residues 603-666), NTR (domain or fragment, UniProt Q9NRM7 603-666, looked up)
chain: T10 sequence with Y8V
notes: human LATS2, residues 603-666 (NTR), codon-optimized synthetic gene; also called NTR of LATS2; source: E. coli BL21(DE3), purified (Ni-NTA)
B4: LATS2 (603-666, V610Y) (domain or fragment, human, UniProt Q9NRM7 603-666, looked up)
chain: T10 sequence
notes: human LATS2, residues 603-666 (NTR), codon-optimized synthetic gene; also called LATS2(V610Y); source: E. coli BL21(DE3), purified (Ni-NTA)
B5: human LATS1 (residues 640-703), NTR (domain or fragment, UniProt O95835 640-703, looked up)
chain: T7 chain
notes: human LATS1, residues 640-703 (NTR); also called LATS1 (640-703); LATS1 wild-type; source: E. coli BL21(DE3), purified (Ni-NTA)
B6: human NDR1 (residues 24-87), NTR (domain or fragment, UniProt Q15208 24-87, looked up)
chain: T9 chain
notes: human NDR1, residues 24-87 (NTR); also called NTR of NDR1; source: E. coli BL21(DE3), purified (Ni-NTA)
B7: NDR1 (24-87, Y31V) (domain or fragment)
chain: T9 chain with Y8V
B8: MST2-phosphorylated full-length MOB1A (phospho-MOB1) (natural protein, human, UniProt Q9H8S9 1-216, looked up)
chain: T1 sequence with E104K, E105K
modifications: phosphorylated in vitro by MST2 (residues 2-308); the paper names Thr12 and Thr35 as the MST1/2 phosphorylation sites of MOB1
notes: human MOB1A, full length; the methods describe the phosphorylation reaction for MOB1A (33-216); results and legend call phospho-MOB1 full length; also called MST1/2-phosphorylated full-length MOB1; source: E. coli, purified (Ni-NTA), then phosphorylated in vitro by MST2 (2-308)
B9: non-phosphorylated full-length MOB1A wild-type (natural protein)
chain: T1 sequence with E104K, E105K

Experiments:
[1] = target: T1, phospho-MOB1(K104E/K105E), full length, …; experiment: ITC; phosphorylated MOB1
[2] = target: T2, unphosphorylated full-length …; experiment: ITC
[3] = target: T3, unphosphorylated full-length …; experiment: ITC; 25 °C, ITC200; 25 mM HEPES pH 7.5, 200 mM NaCl, 1 mM EDTA; ~240 μM MOB1A injected (20 x 2 μl) into ~24 μM NDR1, NDR2, LATS1 or LATS2 fragment in the cell; single-site model; details: both partners purified
[4] = target: T4, phospho-MOB1(K104E/K105E), full length, …; experiment: as above; details: both partners purified
[5] = target: T5, non-phosphorylated full-length MOB1A …; experiment: as above; details: both partners purified
[6] = target: T6, human NDR2 (residues 25-88), N-terminal …; experiment: ITC
[7] = target: T7, human LATS1 (residues 640-703), NTR; experiment: ITC; MOB1 phosphorylated by MST2
NDR2 (25-88, Y32V) = target: B1; experiment: ITC; MOB1 phosphorylated by MST2
LATS1 (640-703, V647Y) [8] = target: T8, LATS1 (640-703, V647Y); experiment: ITC; MOB1 phosphorylated by MST2
NDR1 (24-87, Y31V) [9] = target: B7; experiment: ITC; MOB1 phosphorylated by MST2
[10] = target: T9, human NDR1 (residues 24-87), NTR; experiment: ITC; MOB1 phosphorylated by MST2
LATS2 (603-666, V610Y) [11] = target: T10, LATS2 (603-666, V610Y); experiment: ITC; MOB1 phosphorylated by MST2
[12] = target: T11, human LATS2 (residues 603-666), NTR; experiment: ITC; MOB1 phosphorylated by MST2
NDR1 (24-87, Y31V) [13] = target: B7; experiment: ITC; 25 °C, ITC200; 25 mM HEPES pH 7.5, 200 mM NaCl, 1 mM EDTA; ~240 μM MOB1A injected (20 x 2 μl) into ~24 μM NDR1, NDR2, LATS1 or LATS2 fragment in the cell; single-site model
LATS1 (640-703, V647Y) [14] = target: B2; experiment: as above; details: both partners purified
LATS2 (603-666, V610Y) [15] = target: B4; experiment: as above; details: both partners purified
[16] = target: T12, human NDR2 (residues 25-88), N-terminal …; experiment: as above; details: both partners purified
[17] = target: B6; experiment: as above; details: both partners purified
LATS1 (640-703, V647Y) [18] = target: T8, LATS1 (640-703, V647Y); experiment: ITC
[19] = target: T9, human NDR1 (residues 24-87), NTR; experiment: ITC
LATS2 (603-666, V610Y) [20] = target: T10, LATS2 (603-666, V610Y); experiment: ITC

Row | Kd [1] | Kd [2] | binding result [3] | binding result [4] | binding result [5] | Binder | other results
1 | 8.7 µM | – | – | – | – | B1 | –
2 | 3.83 µM | 14.1 µM | binds | binds | binds | B2 | –
3 | 8.4 µM | – | – | binds | – | B3 | –
4 | 1.3 µM | 12.2 µM | binds | binds | binds | B4 | –
5 | 16.2 µM | – | – | binds | – | B5 | –
6 | 0.124 µM | 7.94 µM | binds | binds | binds | B6 | –
7 | 2.34 µM | – | – | – | – | B7 | –
8 | – | – | – | – | – | B8 | Kd [6]: 0.578 µM; Kd [7]: 19.6 µM; Kd (NDR2 (25-88, Y32V)): 9.9 µM; Kd (LATS1 (640-703, V647Y) [8]): 4.42 µM; Kd (NDR1 (24-87, Y31V) [9]): 2.82 µM; Kd [10]: 0.136 µM; Kd (LATS2 (603-666, V610Y) [11]): 1.54 µM; Kd [12]: 8.93 µM; fold decrease in affinity against wild-type NDR1 (NDR1 (24-87, Y31V) [13]): 20 fold; fold increase in affinity against wild-type LATS1 (LATS1 (640-703, V647Y) [14]): 5 fold; fold increase in affinity against wild-type LATS2 (LATS2 (603-666, V610Y) [15]): 5 fold; fold increase in affinity against LATS1 or LATS2 [16]: ≥ 15 fold; fold increase in affinity against LATS1 or LATS2 [17]: ≥ 15 fold
9 | – | – | – | – | – | B9 | Kd (LATS1 (640-703, V647Y) [18]): 16.9 µM; Kd [6]: 12.3 µM; Kd [19]: 8.06 µM; Kd (LATS2 (603-666, V610Y) [20]): 11.5 µM
